Results: PMC5928183, “A Role for the Non-Receptor Tyrosine Kinase Abl2/Arg in Experimental Neuroinflammation” (Journal of Neuroimmune Pharmacology, 2018)

Biological target: actin filaments (F-actin) from chicken skeletal muscle (chicken, UniProt P68139 1-377)
Assay: co-sedimentation; increasing amounts of Arg/Arg V1030M incubated with 1 μM actin filaments; 40 mM Hepes pH 7.25, 150 mM KCl, 2 mM MgCl2, 0.01% NP40, 4.5% glycerol; supernatant and pellet on SDS-PAGE, Coomassie R250 and densitometry; three trials
Details: both partners purified

B1: Arg (Abl2/Arg non-receptor tyrosine kinase), valine at position 1030 (enzyme)
chain: MGQQVGRVGEAPGLQQPQPRGIRGSSAARPSGRRRDPAGRTADAGFNVFTQHDHFASCVEDGFEGDKTGGSSPEVLHRPFGCDAESQALNEAIRWSSKENLLGATESDPNLFVALYDFVASGDNTLSITKGEKLRVLGYNQNGEWSEVRSKNGQGWVPSNYITPVNSLEKHSWYHGPVSRSAAEYLLSSLINGSFLVRESESSPGQLSISLRYEGRVYHYRINTTTDSKVYVTAESRFSTLAELVHHHSTVADGLVTTLHYPAPKCNKPTVYGVSPIHDKWEMERTDITMKHKLGGGQYGEVYVGVWKKYSLTVAVKTFKEDTMEVEEFLKEAAVMKEIKHPNLVQLLGVCTLEPPFYIVTEYMPYGNLLDYLRECSREEVTAVVLLYMATQISSAMEYLEKKNFIHRDLAARNCLVGENHVVKVADFGLSRLMTGDTYTAHAGAKFPIKWTAPESLAYNTFSIKSDVWAFGVLLWEIATYGMSPYPGIDLSQVYDLLEKGYRMEQPEGCPPKVYELMRACWKWSPADRPSFAETHQAFETMFHDSSISEEVAEELGRTASSSSVVPYLPRLPLLPSKTRTLRKQGENKENLDGGLDAAESLASSSAPAGFIRSTQASSGSPALPRKQRDKSPSSLLEDAKETCFTRDRKGGFFSSFMKKRNAPTPPKRSSSFREMENQPHKKYELTGNFSPVASLQNADGFSVAPSQQEPNLVPAKCYGGSFAQRNLCADDDSGGGGGSGTAGGGWSGITGFFTPRLIKKTLGLRAGKPTASDDTSKPFPRSNSTSSMSSGLPEQDRMAMTLPRNCQRSKLQLERTVSTSSQPEENVDRANDMLPKKSEEGAAPARERPKAKLLPRGATALPLRAPDPAITESDSPGVGVAGVAAAPKGKERNGGTRLGVAGVPEDGEQLGWSSPAKAVAVLPTTHNHKVPVLISPTLKHTPADVQLIGTDSQGNKFKLLSEHQVTSSGDKDRPRRVKPKCAPPPPPVMRLLQHPSTCSDPEEEPTAPPAGQHTPETQEGGKKAAPGPVPSSGKPGRPVMPPPQVPLPTSSISPAKMANGTAGTKVALRKTKQAAEKISADKISKEALLECADLLSSAITEPVPNSQLVDTGHQLLDYCSGYVDSIPQTRNKFAFREAVSKLELSLQELQVSSTAAGVPGTNPVLNNLLSCVQEISDVVQR
notes: SNP rs30466582); neither tags nor construct limits are stated here; also called Arg_1030V; Abelson related gene; source: Hi5 cells via baculoviral vectors, purified as previously described (Wang et al., 2001)
Q: With B1 as the binder, how does the Kd read?
A: 710 ± 500 nM

B2: Arg V1030M (enzyme)
chain: MGQQVGRVGEAPGLQQPQPRGIRGSSAARPSGRRRDPAGRTADAGFNVFTQHDHFASCVEDGFEGDKTGGSSPEVLHRPFGCDAESQALNEAIRWSSKENLLGATESDPNLFVALYDFVASGDNTLSITKGEKLRVLGYNQNGEWSEVRSKNGQGWVPSNYITPVNSLEKHSWYHGPVSRSAAEYLLSSLINGSFLVRESESSPGQLSISLRYEGRVYHYRINTTTDSKVYVTAESRFSTLAELVHHHSTVADGLVTTLHYPAPKCNKPTVYGVSPIHDKWEMERTDITMKHKLGGGQYGEVYVGVWKKYSLTVAVKTFKEDTMEVEEFLKEAAVMKEIKHPNLVQLLGVCTLEPPFYIVTEYMPYGNLLDYLRECSREEVTAVVLLYMATQISSAMEYLEKKNFIHRDLAARNCLVGENHVVKVADFGLSRLMTGDTYTAHAGAKFPIKWTAPESLAYNTFSIKSDVWAFGVLLWEIATYGMSPYPGIDLSQVYDLLEKGYRMEQPEGCPPKVYELMRACWKWSPADRPSFAETHQAFETMFHDSSISEEVAEELGRTASSSSVVPYLPRLPLLPSKTRTLRKQGENKENLDGGLDAAESLASSSAPAGFIRSTQASSGSPALPRKQRDKSPSSLLEDAKETCFTRDRKGGFFSSFMKKRNAPTPPKRSSSFREMENQPHKKYELTGNFSPVASLQNADGFSVAPSQQEPNLVPAKCYGGSFAQRNLCADDDSGGGGGSGTAGGGWSGITGFFTPRLIKKTLGLRAGKPTASDDTSKPFPRSNSTSSMSSGLPEQDRMAMTLPRNCQRSKLQLERTVSTSSQPEENVDRANDMLPKKSEEGAAPARERPKAKLLPRGATALPLRAPDPAITESDSPGVGVAGVAAAPKGKERNGGTRLGVAGVPEDGEQLGWSSPAKAVAVLPTTHNHKVPVLISPTLKHTPADVQLIGTDSQGNKFKLLSEHQVTSSGDKDRPRRVKPKCAPPPPPVMRLLQHPSTCSDPEEEPTAPPAGQHTPETQEGGKKAAPGPMPSSGKPGRPVMPPPQVPLPTSSISPAKMANGTAGTKVALRKTKQAAEKISADKISKEALLECADLLSSAITEPVPNSQLVDTGHQLLDYCSGYVDSIPQTRNKFAFREAVSKLELSLQELQVSSTAAGVPGTNPVLNNLLSCVQEISDVVQR
notes: SNP rs30466582); neither tags nor construct limits are stated here; also called Arg_1030M; source: Hi5 cells via baculoviral vectors, purified as previously described (Wang et al., 2001)
Q: For B2, which Kd is on record?
A: 860 ± 640 nM
